Measurements as given in the DeepSol protein solubility set.

Test: soluble on expression in E. coli; label from the status in PepcDB or PDB records

Question: For “MKSRLPFRYLEPTFCAGLLDDPVLLVNVRPLGRSILVDCGQIHHLAKRVLKSIDAVFVSHAHMDHFMGLDTLVRHIHVSPRTVELFGPPGIARKVAAKLAGYDWNLTESYWCTFRVSEVHPERIVRFTFPGSEGFPCLPEEETTREGTEIFRNDFLAVDADLCDHNTLPTLVFRITERPTFWIDEAKVDQEGLVPGEWLRELKHRFYRGRLDGKTITVPVRTAGDTVAQRIREGRELFEAIRRSQEPASIGYLTDIGAGDTNLATVRRLLAGVTLLACECSFLAADVAKARTSHHLCTADVSALAREIRPGWLLPMHLSKSYNTKGHLLYRELTLAPETRLIRLPEHLTPRPLLPGEFPGLWKIAEMAGDPNSLEHHHHHH”, which “soluble on expression in E. coli” value is on record?
Answer: not soluble

Question: Which “soluble on expression in E. coli” value does the source give for “HEIPYDNTSLPAVTFMQPSAKKNLLIFGGYDSNLEELILWFSPLRNNGYNLIIFDGPGQGNMLFKKEKSHFIMNFEKPVAAVLDYFSLDRVAALGLSWGGFFVMRAAAFEKRIEKIIALDIFYQGLDALTIAMNPVLAFIFKTLVNFKCKTWIDVLLTHAMTRDLDLNWKIKRGYQLTGTKTPYDLIQNIKKHNMKGLGPLINQEVLLLAGEKDQYVPVKRLGQIKKELSNAAEIKTHLFTQESGGEQHCQAGSNLALLAIKDFLK” here?
Answer: not soluble

Question: Which “soluble on expression in E. coli” value does the source give for “MFARDIGIDLGTANVLIHVKGKGIVLNEPSVVAIDRNTGKVLAVGEEARSMVGRTPGNIVAIRPLKDGVIADFEITEAMLKYFINKLDVKSFFSKPRILICCPTNITSVEQKAIREAAERSGGKTVFLEEEPKVAAVGAGMEIFQPSGNMVVDIGGGTTDIAVLSMGDIVTSSSIKMAGDKFDMEILNYIKRKYKLLIGERTSEDIKIKVGTVFPGARSEELEIRGRDMVTGLPRTITVCSEEITEALKENAAVIVQAAKGVLERTPPELSADIIDRGVILTGGGALLHGIDMLLAEELKVPVLIAENPMHCVAVGTGIMLENIDKLPRRALK” here?
Answer: not soluble

Question: For “MSLVKAVLFDIDGTLLSEKPLIMFILPQVYDELANKLNISRMEARRIFLSEIEKRKGKYEWHDWNFFFRLFSLPFKYEDFIMKYPTKIEVFPGVVEVLKYLKERGYRLGIVTSGPRYQVLKLKVSGIYRYFDVVVTRDDVGSIKPEPRIFLAALEKLKISPKDAVMVGDSLEQDILGAKGVGMKSVWINVGGENGYNLPDFEISSILQLPEVIEDESDIEGHHHHHH”, which “soluble on expression in E. coli” value is on record?
Answer: soluble

Question: Which “soluble on expression in E. coli” value does the source give for “MEVPENLKNPQNARREGSNMKCLADYSVEKEVGEGSFSTVYLARRKEPKNDENPEVALKICLKRLILKNKMVPYIHREKEALALISREENAHPGIVTLYATFQDSESLYFVLEYAKYGDLCTLMQKQPDSKFNVADSRYYAANLLSALEHIHKLGIIHRDVKADNLLVKSDGRIMLTDFGSSKFLSDYQKIQENPVEEEQPTGRRSSFVGTAFFVTPELLTGSEMSPSSDLWAFSVTLYLFLTGIYPFNDMSEYLVFRRIQDILYTFSEDFPDENAKNLIERLLVKEQKSRLTSQEIKEHKFFESIDFEHLEQLEPPRIY” here?
Answer: not soluble

Question: For “MGSDKIHHHHHHMETIETVQRFLEHMAWYATPVPASAISFLAAGEYNENWRIRHEGRDEVLRVNHGSQLRFADQIGYEYAVLRAVHPSGVTPRALRVKSRPRHLSGGALLMEYLPGRPLDYRTDLEAAAHTFAAVHSVVVPRGCPLLRQPDPVADIAADGLRLIHRFPDHPRTDVRDALLRYHERVVRLGEDTRALFEGERQVIANTEVNSGNFLVHDGVARLVDWEKAVVTPRYQDLGHFLAPTTTLWKTDTVLDEADRRRFLAAYRDALTRLAGRETVADCHFDTTDTAEGVTHEAAFHTTAPDAPGGQPHGDMAPDVPDLDALAVRTDVLVRAVLLRGLAWCYMAWQEYATDRRPLAHPDTLRTIERYLAEVSWFLR”, which “soluble on expression in E. coli” value is on record?
Answer: not soluble

Question: Which “soluble on expression in E. coli” value does the source give for “MKVKKWVTQDFPMVEESATVRECLHRMRQYQTNECIVKDREGHFRGVVNKEDLLDLDLDSSVFNKVSLPDFFVHEEDNITHALLLFLEHQEPYLPVVDEEMRLKGAVSLHDFLEALIEALAMDVPGIRFSVLLEDKPGELRKVVDALALSNINILSVITTRSGDGKREVLIKVDAVDEGTLIKLFESLGIKIESIEKEEGF” here?
Answer: not soluble

Question: With “MAHHHHHHMKVDSLLSPRSAFSTENDPCGSVESVANDVASASDVVVAYPQPGKRWSRIIAGPELVGMSLKENQIKDGKALCIYGHCFDDGIIDYITNEVLPEARVLTKVEIAETKFSSAGMKILLRALWTNSPCEQMEELLLHDVHLHFEETLQLKEVIMKNRKCLRRLVLQRCHMDDSAAEPIVQAISHCEQLREVNFLDNNIVHALAIPTEREDIFPPTLQIFDISGNRIEPKHFTGLGNALRRCMANLHEVYLARCCVTESGLKTLLCGGLYNSQVLSVLNVSAGRLLHTAGKVLSSVISECPNLQRVYMQDNLLDVEGAAQIALVIPYAKKLTVLGMGRCHLGGRGARYIAEAVKQSASLRELDLSGNGVTDEDVHRICACNDDASFRLSYLDLSDNPLTEDCRCSLETLLEHQKDNSCIVVVRGTGLAVVSSYMEYHNKPTPG” as the sequence, how does the “soluble on expression in E. coli” value read?
Answer: not soluble

Question: For “GPGSMQKQHAPGRGLVLHSHKVKGQQQERNDSLVQCAQHPPLQKRVNPHPHSHSSKPIPNIFVVITGLVVNPRTGSFHDFRSPCFPPPRGGGKGRNAWGNRNGEKVEAALAALQIGIFGDQHHIAGKEACQVDKKPSCSFFLTWPHILPTRFQRKKKRKNY”, which “soluble on expression in E. coli” value is on record?
Answer: not soluble

Question: For “MVKVKIYYKDREWPPEYRKVLEKMKEIIDPVTGESILDSGVLAGLEVKGDTLKVWLKFESNAEYNILGSAAMAYSKIVGDIMEKFALVMFDKVYVYDLGNNPIGIFENKGNGRK”, which “soluble on expression in E. coli” value is on record?
Answer: soluble

Question: With “YKEEDSTVSILPTSLPQIHRANMLAQGSPAASKISPLVTKKSKTRWHFGIRSRSYPLDVMGEIYIALKNLGAEWAKPSEEDLWTIKLRWKYDIGNKTNTNEKIPDLMKMVIQLFQIETNNYLVDFKFDGWESSYGDDTTVSNISEDEMSTFSAYPFLHLTTKLIMELAVNS” as the sequence, how does the “soluble on expression in E. coli” value read?
Answer: soluble

Question: Which “soluble on expression in E. coli” value does the source give for “DMSKVNLEVIKPWITKRVTEILGFEDDVVIEFIFNQLEVKNPDSKMMQINLTGFLNGKNAREFMGELWPLLLSAQENIAGIPSAFLELKK” here?
Answer: not soluble

Question: For “SERRLGVRAWVKENRGSFQPPVCNKLMHQEQLKVMFIGGPNTRKDYHIEEGEEVFYQLEGDMVLRVLEQGKHRDVVIRQGEIFLLPARVPHSPQRFANTVGLVVERRRLETELDGLRYYVGDTMDVLFEKWFYCKDLGTQLAPIIQEFFSSEQYRTGKPIPDQLLKEPPFPLSTRSIMEPMSLDAWLDSHHRELQAGTPLSLFGDTYETQVIAYGQGSSEGLRQNVDVWLWQLEGSSVVTMGGRRLSLAPDDSLLVLAGTSYAWERTQGSVALSVTQDPACKKPLG”, which “soluble on expression in E. coli” value is on record?
Answer: soluble

Question: For “SLLLLQSILITKIMVIQLILFFEYALASGFEDKNILKEGKMMFDTLLKQFLEIDKVISLLYKDFVDNYIDFKNLEIVKIKKENEIENKLKSLLKSENIDYALVVAPEDEDILYNLTKIIESYPVKNLGCSSEAIKIAGNKYLTYLAIKDAVKTPKTFPPKKYVVKKIDSCGGKFNLFDENFLIQEFIDGENLSVSLIVGKKIHPLSLNRQYIDKRGFVGGEVNINHKLKDKIFNEAIKAVKCINGLNGYVGVDVIVNNDGIYIIEINPRITTTIYGLKTNPSLAELLIKNANNEELKFKVKGEKFTIDK”, which “soluble on expression in E. coli” value is on record?
Answer: not soluble

Question: Which “soluble on expression in E. coli” value does the source give for “MTPPRMRISGENELVQALLEHGHVLVEASEAELIFDPTQLVRRGQIVAHLGHATLADLDAYSSGHAFVLTELMPQIYAVTASDELAGMVAELLISELGGRVVHVPESQRDRLTAGLACAGFIGQVRSEARNLLTEALGNAHHADEVVEQLTDAVAPPLNVAALERGYHAIDSVGTKRLYAQLARRSGEVFRNNDVELWAMNQEQNNT” here?
Answer: not soluble

Question: Which “soluble on expression in E. coli” value does the source give for “MGSDKIHHHHHHMLNSMRINAFVKFQFPDDLLLNSNLVYGMVNGSTYEREIRDILGGREQAVKKYASKIPEKSDAIMSLIESPFYVTRSAGSFGADVIAIRHDFSMVIEVKSSVRPYLMFSEGSGKKQEQANRINEMCTKAGIFLTYAYRIKNVQGDPWKLFVVESKPIGRFSMVYELIPKIAKTREGNYIMKWEDGLPLSSFIEIINKKII” here?
Answer: not soluble
